Tested on: P18IIIB-I10 peptide-pulsed 51Cr labeled P815 targets
Test: CTL 51Cr release assay with PP, LP or SP effector cells of immunized mice
Format: in vivo, BALB/c mice
Conditions: day 35

B1: rmIL-12 (protein, UniProt P43431 23-215; P43432 23-335, looked up)
Interleukin-12 subunit alpha: RVIPVSGPARCLSQSRNLLKTTDDMVKTAREKLKHYSCTAEDIDHEDITRDQTSTLKTCLPLELHKNESCLATRETSSTTRGSCLPPQKTSLMMTLCLGSIYEDLKMYQTEFQAINAALQNHNHQQIILDKGMLVAIDELMQSLNHNGETLRQKPPVGEADPYRVKMKLCILLHAFSTRVVTINRVMGYLSSA
Interleukin-12 subunit beta: MWELEKDVYVVEVDWTPDAPGETVNLTCDTPEEDDITWTSDQRHGVIGSGKTLTITVKEFLDAGQYTCHKGGETLSHSHLLLHKKENGIWSTEILKNFKNKTFLKCEAPNYSGRFTCSWLVQRNMDLKFNIKSSSSSPDSRAVTCGMASLSAEKVTLDQRDYEKYSVSCQEDVTCPTAEETLPIELALEARQQNKYENYSTSFFIRDIIKPDPPKNLQMKPLKNSQVEVSWEYPDSWSTPHSYFSLKFFVRIQRKKEKMKETEEGCNQKGAFLVEKTSTEVQCKGGNVCVQAQDRYYNSSCSKWACVPCRVRS
In the case of B1, the “change in HIV-specific CTL activity in mucosal or systemic sites, rmIL-12 by IP route” value (1 μg IP each day of IR immunization with PCLUS3-18IIIB 50 μg) is reported as “did not lead to significant changes”, the “change in CTL level in mucosal and systemic sites, rmIL-12 + DOTAP intrarectally with peptide” value (1 μg IR) is reported as “significant increase in the CTL level” and the “induction of mucosal or systemic CTL in IR-immunized IFNγ−/− mice treated mucosally with rmIL-12” value (rmIL-12 1 μg/mouse + DOTAP IR with peptide) is reported as “did not lead to the induction of mucosal or systemic CTL”.
